The source of these data is PMC11077872, “Sustainable production of multimeric and functional recombinant human adiponectin using genome-edited chickens” (Journal of Biological Engineering, 2024).

Values joined by “and” are separate entries in the source; they are usually repeats but may differ in a detail not shown here. Equal values may be shown once.

Data set [1] deals with the molecule itself. Briefly: non-reducing SDS-PAGE with western blot; egg white of hens of generations G1-G4 diluted 500 times, mixed with native sample buffer (non-reducing), SDS-PAGE, anti-ADPN blot; with beta-mercaptoethanol and 95 °C mostly monomer at 28 kDa and a weak trimer signal. Background: A western blot detects proteins with antibodies after separation by electrophoresis.

Data set [2] deals with the molecule itself. In words: non-reducing SDS-PAGE with western blot; 100 ng of purified or commercial hADPN, mixed with native sample buffer (non-reducing), SDS-PAGE, anti-ADPN blot; with beta-mercaptoethanol and 95 °C mostly monomer, some trimer.

B1: recombinant human adiponectin (hADPN) from egg white of OVA ADPN knock-in genome-edited chickens (natural protein, UniProt Q15848 19-244, looked up)
chain: ETTTQGPGVLLPLPKGACTGWMAGIPGHPGHNGAPGRDGRDGTPGEKGEKGDPGLIGPKGDIGETGVPGAEGPRGFPGIQGRKGEPGEGAYVYRSAFSVGLETYVTIPNMPIRFTKIFYNQQNHYDGSTGKFHCNIPGLYYFAYHITVYMKDVKVSLFKKDKAMLFTYDQYQENNVDQASGSVLLHLEVGDQVWLQVYGEGERNGLYADNDNDSTFTGFLLYHDTN
notes: human adiponectin (ADPN), expressed from the chicken ovalbumin locus by knock-in; A mixture of hexamers and HMW multimers; also called EW-derived hADPN; EW-derived recombinant hADPN; source: egg white of OVA ADPN knock-in hens (G1-G4), diluted egg white; also purified from egg white (ammonium sulfate, HiTrap Q, Superdex 200 SEC)
As a reminder, the stoichiometry N is the number of molecules, sites or subunits per partner or assembly. For B1, the “stoichiometry N” value in data set [1] stood at 6.

B2: High-Five (Hi-5) cell-derived recombinant hADPN (natural protein, human, UniProt Q15848 19-244, looked up)
chain: B1 chain
notes: human adiponectin (ADPN); Mostly trimers, with hexamers and a weak monomer signal; also called Hi-5 cell hADPN; Hi-5 cell-derived commercial hADPN; source: bought: PeproTech (450-24), Hi-5 cells
As to B2, the “stoichiometry N” value in data set [2] was 3 and 6.

B3: commercial recombinant hADPN derived from human embryonic kidney (HEK) 293 cells with a C-terminal FLAG tag (natural protein, UniProt Q15848 19-244, looked up)
chain: B1 chain
notes: human adiponectin (ADPN); Mixture of trimers, hexamers and HMW forms; also called HEK293 cell hADPN; HEK293 cell-derived commercial hADPN; source: bought: Biovendor R&D (RD172023100), HEK293 cells; not shown: FLAG, C-terminal, kept
For B3, the “stoichiometry N” value in data set [2] was 6 and 3.

B4: serum-derived commercial hADPN (natural protein, human, UniProt Q15848 19-244, looked up)
chain: B1 chain
notes: human adiponectin (ADPN), native protein from human serum; also called native serum-derived hADPN; human serum hADPN (positive control); source: bought: ProSpec (CYT-024), derived from human serum
Take B4: the “stoichiometry N” value in data set [2] worked out at 6.
